{
  "source": "paper PMC10978839",
  "proteins": {"B1": {"name": "SEMA7A: 5NQ (protein)", "parent chain": "MTPPPPGRAAPSAPRARVPGPPARLGLPLRLRLLLLLWAAAASAQGHLRSGPRIFAVWKGHVGQDRVDFGQTEPHTVLFHEPGSSSVWVGGRGKVYLFDFPEGKNASVRTVNIGSTKGSCLDKRDCENYITLLERRSEGLLACGTNARHPSCWNLVNGTVVPLGEMRGYAPFSPDENSLVLFEGDEVYSTIRKQEYNGKIPRFRRIRGESELYTSDTVMQNPQFIKATIVHQDQAYDDKIYYFFREDNPDKNPEAPLNVSRVAQLCRGDQGGESSLSVSKWNTFLKAMLVCSDAATNKNFNRLQDVFLLPDPSGQWRDTRVYGVFSNPWNYSAVCVYSLGDIDKVFRTSSLKGYHSSLPNPRPGKCLPDQQPIPTETFQVADRHPEVAQRVEPMGPLKTPLFHSKYHYQKVAVHRMQASHGETFHVLYLTTDRGTIHKVVEPGEQEHSFAFNIMEIQPFRRAAAIQTMSLDAERRKLYVSSQWEVSQVPLDLCEVYGGGCHGCLMSRDPYCGWDQGRCISIYSSERSVLQSINPAEPHKECPNPKPDKAPLQKVSLAPNSRYYLSCPMESRHATYSWRHKENVEQSCEPGHQSPNCILFIENLTAQQYGHYFCEAQEGSYFREAQHWQLLPEDGIMAEHLLGHACALAASLWLGVLPTLTLGLLVH"}},
  "key": {"[1]": {"assay": "coculture, Annexin V/PI flow cytometry", "settings": "glycan lost; control: SEMA7A-WT tumor cells"}, "[2]": {"assay": "confocal colocalisation with calreticulin/GM130; membrane trafficking", "settings": "glycan lost; control: SEMA7A-WT"}, "[3]": {"assay": "CHX chase immunoblot, turnover rate", "settings": "glycan lost; control: SEMA7A-WT"}, "cell viability": {"assay": "cell viability", "settings": "glycan lost; control: SEMA7A-WT cells"}, "[4]": {"assay": "CHX plus MG132/HCQ/BTZ, immunoblot; degradation pathway", "settings": "glycan lost; control: SEMA7A-WT"}, "[5]": {"assay": "real-time PCR of PD-L1 isoforms", "settings": "glycan lost; control: SEMA7A-WT cells"}, "[6]": {"assay": "cleaved Caspase-3 and proliferation", "settings": "glycan lost; control: SEMA7A-WT cells"}, "ELISA of secreted SEMA7A": {"assay": "ELISA of secreted SEMA7A", "settings": "glycan lost; control: SEMA7A-WT"}, "[7]": {"assay": "CRT expression and nuclear HMGB1 with doxorubicin", "settings": "glycan lost; control: SEMA7A-WT cells"}, "[8]": {"assay": "flow cytometry of PD-1, LAG3, CTLA4, TIM3", "settings": "glycan lost; control: SEMA7A-WT tumor cells"}, "[9]": {"assay": "non-reducing vs reducing western blot", "settings": "glycan lost; control: SEMA7A-WT"}, "[10]": {"assay": "IL-2 ELISA after coculture", "settings": "glycan lost; control: SEMA7A-WT tumor cells"}},
  "data": [
    {"protein": "B1", "values": [
      {"measurement": "other: susceptibility to CD8+ T-cell killing", "setting": "[1]", "result": "increases"},
      {"measurement": "localisation_or_trafficking", "setting": "[2]", "result": "decreases"},
      {"measurement": "degradation_or_half_life", "setting": "[3]", "result": "increases"},
      {"measurement": "other: sensitivity to doxorubicin", "setting": "cell viability", "result": "increases"},
      {"measurement": "degradation_or_half_life", "setting": "[4]", "result": "changes"},
      {"measurement": "other: PD-L1 alternative splicing", "setting": "[5]", "result": "changes"},
      {"measurement": "other: sensitivity to EGFR inhibitors", "setting": "[6]", "result": "increases"},
      {"measurement": "expression_or_secretion", "setting": "ELISA of secreted SEMA7A", "result": "no change"},
      {"measurement": "other: immunogenic cell death markers", "setting": "[7]", "result": "increases"},
      {"measurement": "other: exhaustion of cocultured CD8+ T cells", "setting": "[8]", "result": "decreases"},
      {"measurement": "oligomerisation", "setting": "[9]", "result": "abolishes"},
      {"measurement": "other: IL-2 release by cocultured Jurkat cells", "setting": "[10]", "result": "increases"}
    ]}
  ]
}
